Experimental data taken from patent US20260152561A1.

What was measured:
[1] = target: PD-L1 on tumor cells (EMT6-PD-L1, U2OS) (UniProt Q9NZQ7); assay: cell-based or functional assay
[2] = target: MICA/MICB on tumor cells (MGC-803, U2OS); assay: cell-based or functional assay

Chain of UniProt Q9NZQ7 (Q9NZQ7 19-290 limits assumed): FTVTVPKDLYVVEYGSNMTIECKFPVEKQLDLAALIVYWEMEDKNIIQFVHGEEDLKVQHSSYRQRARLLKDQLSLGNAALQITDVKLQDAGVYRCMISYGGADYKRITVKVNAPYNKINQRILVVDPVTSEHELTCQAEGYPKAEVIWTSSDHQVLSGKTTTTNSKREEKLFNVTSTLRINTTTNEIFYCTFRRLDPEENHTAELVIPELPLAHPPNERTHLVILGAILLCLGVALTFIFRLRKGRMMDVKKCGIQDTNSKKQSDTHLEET

Q: Which cytotoxicity (luciferase killing assay, effector-to-target ratio 5:1) on U2OS cells [1] does the source give for “dual-targeting chimeric antigen receptor PD1-DAP10-41BB-P2A-NKG2D-IgG4-CD28-41BB-CD3ζ, expressed on NK92 cells (PN-CAR-NK92)” here?
A: 6 fold

Q: And the cytotoxicity (luciferase killing assay, effector-to-target ratio 5:1) on U2OS cells [2]?
A: 6 fold
